# Source: the RNAGym collection of RNA variant scans (doi:10.7554/elife.80360)
# B1: Hairpin Ribozyme (parent)
# chain: GUCCUCUUUCACGUGCGCGUGAAAGAGAGAAGUGAACCAGAGAAACACACGUUGUGGUAUAUUACCUGGUA
# Variants of: B1
# Experiment: self-cleavage, relative activity (ratio to wild type); higher = more cleavage; co-transcriptional
row,Variant,self-cleavage
1,GUCCUCUUUCCCGUGCGCGUGAAAGAGAGAAGUGAAGCAGAGAAACACACGUUGUGGUAUAUUACCUGGUA,0.435
2,GUCCUCUUUCCCGUGCGCGUGAAAGAGAGAAGUGAAUCAGAGAAACACACGUUGUGGUAUAUUACCUGGUA,0.494
3,GUCCUCUUUCCCGUGCGCGUGAAAGAGAGAAGUGAACAAGAGAAACACACGUUGUGGUAUAUUACCUGGUA,0.171
4,GUCCUCUUUCCCGUGCGCGUGAAAGAGAGAAGUGAACCAGAGAAAAACACGUUGUGGUAUAUUACCUGGUA,0.142
5,GUCCUCUUUCCCGUGCGCGUGAAAGAGAGAAGUGAACCAGAGAAACACAAGUUGUGGUAUAUUACCUGGUA,0.288
6,GUCCUCUUUCCCGUGCGCGUGAAAGAGAGAAGUGAACCAGAGAAACACACGUUGUGGUAUAUUAACUGGUA,0.896
7,GUCCUCUUUCCCGUGCGCGUGAAAGAGAGAAGUGAACCAGAGAAACACACGUUGUGGUAUAUUAUCUGGUA,0.431
8,GUCCUCUUUCCCGUGCGCGUGAAAGAGAGAAGUGAACCAGAGAAACACACGUUGUGGUAUAUUACAUGGUA,0.317
9,GUCCUCUUUCCCGUGCGCGUGAAAGAGAGAAGUGAACCAGAGAAACACACGUUGUGGUAUAUUACUUGGUA,0.408
10,GUCCUCUUUCCCGUGCGCCUGAAAGAGAGAAGUGAACCAGAGAAACACACGUUGUGGUAUAUUACCUGGUA,0.589
11,GUCCUCUUUCCCGUGCGCGUGAAAGAAAGAAGUGAACCAGAGAAACACACGUUGUGGUAUAUUACCUGGUA,0.403
12,GUCCUCUUUCCCGUGCGCGUGAAAGACAGAAGUGAACCAGAGAAACACACGUUGUGGUAUAUUACCUGGUA,0.165
13,GUCCUCUUUCCCGUGCGCGUGAAAGAGAAAAGUGAACCAGAGAAACACACGUUGUGGUAUAUUACCUGGUA,0.128
14,GUCCUCUUUCCCGUGCGCGUGAAAGAGAGAACUGAACCAGAGAAACACACGUUGUGGUAUAUUACCUGGUA,0.0648
15,GUCCUCUUUCCCGUGCGCGUGAAAGAGAGAAGUAAACCAGAGAAACACACGUUGUGGUAUAUUACCUGGUA,1.01
16,GUCCUCUUUCCCGUGCGCGUGAAAGAGAGAAGUCAACCAGAGAAACACACGUUGUGGUAUAUUACCUGGUA,1.07
17,GUCCUCUUUCCCGUGCGCGUGAAAGAGAGAAGUGAACCAGAAAAACACACGUUGUGGUAUAUUACCUGGUA,0.278
18,GUCCUCUUUCCCGUGCGCGUGAAAGAGAGAAGUGAACCAGAGAAACACACGUUCUGGUAUAUUACCUGGUA,0.378
19,GUCCUCUUUCCCGUGCGCGUGAAAGAGAGAAGUGAACCAGAGAAACACACGUUUUGGUAUAUUACCUGGUA,0.583
20,GUCCUCUUUCCCGUGCGCGUGAAAGAGAGAAGUGAACCAGAGAAACACACGUUGUAGUAUAUUACCUGGUA,0.15
21,GUCCUCUUUCCCGUGCGCGUGAAAGAGAGAAGUGAACCAGAGAAACACACGUUGUGAUAUAUUACCUGGUA,0.116
22,GUCCUCUUUCCCGUGCGCGUGAAAGAGAGAAGUGAACCAGAGAAACACACGUUGUGGUAUAUUACCUGCUA,0.182
23,GUCCUCUUUCCCGGGCGCGUGAAAGAGAGAAGUGAACCAGAGAAACACACGUUGUGGUAUAUUACCUGGUA,0.661
24,GUCCUCUUUCCCGUGCGCGCGAAAGAGAGAAGUGAACCAGAGAAACACACGUUGUGGUAUAUUACCUGGUA,1.02
25,GUCCUCUUUCCCGUGCGCGUGAAAGAGAGAAGUGAACCAGAGAAACACACGGUGUGGUAUAUUACCUGGUA,0.857
26,GUCCUCUUUCCCGUGCGCGUGAAAGAGAGAAGUGAACCAGAGAAACACACGUGGUGGUAUAUUACCUGGUA,0.863

row,Variant,self-cleavage
1,GUCCUCUUUCCCGUGCGCGUGAAAGAGAGAAGUGAACCAGAGAAACACACGUUGGGGUAUAUUACCUGGUA,0.249
2,GUCCUCUUUCCCGUGCGCGUGAAAGAGAGAAGUGAACCAGAGAAACACACGUUGUGGAAUAUUACCUGGUA,0.635
3,GUCCUCUUUCCCGUGCGCGUGAAAGAGAGAAGUGAACCAGAGAAACACACGUUGUGGCAUAUUACCUGGUA,1.16
4,GUCCUCUUUCCCGUGCGCGUGAAAGAGAGAAGUGAACCAGAGAAACACACGUUGUGGUAUAAUACCUGGUA,0.208
5,GUCCUCUUUCCCGUGCGCGUGAAAGAGAGAAGUGAACCAGAGAAACACACGUUGUGGUAUACUACCUGGUA,0.278
6,GUCCUCUUUCCCGUGCGCGUGAAAGAGAGAAGUGAACCAGAGAAACACACGUUGUGGUAUAUCACCUGGUA,0.141
7,GUCCUCUUUCCCGUGCGCGUGAAAGAGAGAAGUGAACCAGAGAAACACACGUUGUGGUAUAUGACCUGGUA,0.134
8,GUCCUCUUUCCCGUGCGCGUGAAAGAGAGAAGUGAACCAGAGAAACACACGUUGUGGUAUAUUACCUGGAA,0.877
9,GUCCUCUUUCCCGUGCGCGUGAAAGAGAGAAGUGAACCAGAGAAACACACGUUGUGGUAUAUUACCUGGGA,0.608
10,GUCCUCUUUCGCGUGCGCGUGCAAGAGAGAAGUGAACCAGAGAAACACACGUUGUGGUAUAUUACCUGGUA,0.779
11,GUCCUCUUUCGCGUGCGCGUGGAAGAGAGAAGUGAACCAGAGAAACACACGUUGUGGUAUAUUACCUGGUA,0.774
12,GUCCUCUUUCGCGUGCGCGUGUAAGAGAGAAGUGAACCAGAGAAACACACGUUGUGGUAUAUUACCUGGUA,1.01
13,GUCCUCUUUCGCGUGCGCGUGAAGGAGAGAAGUGAACCAGAGAAACACACGUUGUGGUAUAUUACCUGGUA,0.792
14,GUCCUCUUUCGCGUGCGCGUGAAUGAGAGAAGUGAACCAGAGAAACACACGUUGUGGUAUAUUACCUGGUA,0.968
15,GUCCUCUUUCGCGUGCGCGUGAAAGGGAGAAGUGAACCAGAGAAACACACGUUGUGGUAUAUUACCUGGUA,0.751
16,GUCCUCUUUCGCGUGCGCGUGAAAGUGAGAAGUGAACCAGAGAAACACACGUUGUGGUAUAUUACCUGGUA,0.645
17,GUCCUCUUUCGCGUGCGCGUGAAAGAGGGAAGUGAACCAGAGAAACACACGUUGUGGUAUAUUACCUGGUA,1.11
18,GUCCUCUUUCGCGUGCGCGUGAAAGAGAGACGUGAACCAGAGAAACACACGUUGUGGUAUAUUACCUGGUA,0.0862
19,GUCCUCUUUCGCGUGCGCGUGAAAGAGAGAGGUGAACCAGAGAAACACACGUUGUGGUAUAUUACCUGGUA,0.728
20,GUCCUCUUUCGCGUGCGCGUGAAAGAGAGAUGUGAACCAGAGAAACACACGUUGUGGUAUAUUACCUGGUA,0.0838
21,GUCCUCUUUCGCGUGCGCGUGAAAGAGAGAAGUGAUCCAGAGAAACACACGUUGUGGUAUAUUACCUGGUA,0.512
22,GUCCUCUUUCGCGUGCGCGUGAAAGAGAGAAGUGAACCGGAGAAACACACGUUGUGGUAUAUUACCUGGUA,0.323
23,GUCCUCUUUCGCGUGCGCGUGAAAGAGAGAAGUGAACCAGUGAAACACACGUUGUGGUAUAUUACCUGGUA,1.14
24,GUCCUCUUUCGCGUGCGCGUGAAAGAGAGAAGUGAACCAGAGAUACACACGUUGUGGUAUAUUACCUGGUA,0.137
25,GUCCUCUUUCGCGUGCGCGUGAAAGAGAGAAGUGAACCAGAGAAACACGCGUUGUGGUAUAUUACCUGGUA,0.577
26,GUCCUCUUUCGCGUGCGCGUGAAAGAGAGAAGUGAACCAGAGAAACACUCGUUGUGGUAUAUUACCUGGUA,0.208

row,Variant,self-cleavage
1,GUCCUCUUUCGCGUGCGCGUGAAAGAGAGAAGUGAACCAGAGAAACACACGUUGUGGUCUAUUACCUGGUA,0.17
2,GUCCUCUUUCGCGUGCGCGUGAAAGAGAGAAGUGAACCAGAGAAACACACGUUGUGGUAUGUUACCUGGUA,0.166
3,GUCCUCUUUCGCGUGCGCGUGAAAGAGAGAAGUGAACCAGAGAAACACACGUUGUGGUAUUUUACCUGGUA,0.136
4,GUCCUCUUUCGCGUGCGCGUGAAAGAGAGAAGUGAACCAGAGAAACACACGUUGUGGUAUAUUACCUGGUG,0.814
5,GUCCUCUUUCGGGUGCGCGUGAAAGAGAGAAGUGAACCAGAGAAACACACGUUGUGGUAUAUUACCUGGUA,0.788
6,GUCCUCUUUCGCGUGCGCGUGAAAGAGAGAAGUGAAACAGAGAAACACACGUUGUGGUAUAUUACCUGGUA,0.149
7,GUCCUCUUUCGCGUGCGCGUGAAAGAGAGAAGUGAAGCAGAGAAACACACGUUGUGGUAUAUUACCUGGUA,0.34
8,GUCCUCUUUCGCGUGCGCGUGAAAGAGAGAAGUGAACCAGAGAAACAUACGUUGUGGUAUAUUACCUGGUA,0.144
9,GUCCUCUUUCGCGUGCGCGUGAAAGAGAGAAGUGAACCAGAGAAACACAUGUUGUGGUAUAUUACCUGGUA,0.321
10,GUCCUCUUUCGCGUGCGCGUGAAAGAGAGAAGUGAACCAGAGAAACACACGUUGUGGUAUAUUACUUGGUA,0.619
11,GUCCUCUUUCGCAUGCGCGUGAAAGAGAGAAGUGAACCAGAGAAACACACGUUGUGGUAUAUUACCUGGUA,0.924
12,GUCCUCUUUCGCGUACGCGUGAAAGAGAGAAGUGAACCAGAGAAACACACGUUGUGGUAUAUUACCUGGUA,0.896
13,GUCCUCUUUCGCGUUCGCGUGAAAGAGAGAAGUGAACCAGAGAAACACACGUUGUGGUAUAUUACCUGGUA,0.857
14,GUCCUCUUUCGCGUGCCCGUGAAAGAGAGAAGUGAACCAGAGAAACACACGUUGUGGUAUAUUACCUGGUA,0.571
15,GUCCUCUUUCGCGUGCUCGUGAAAGAGAGAAGUGAACCAGAGAAACACACGUUGUGGUAUAUUACCUGGUA,0.823
16,GUCCUCUUUCGCGUGCGCUUGAAAGAGAGAAGUGAACCAGAGAAACACACGUUGUGGUAUAUUACCUGGUA,0.979
17,GUCCUCUUUCGCGUGCGCGUGAAAGACAGAAGUGAACCAGAGAAACACACGUUGUGGUAUAUUACCUGGUA,0.198
18,GUCCUCUUUCGCGUGCGCGUGAAAGAGAAAAGUGAACCAGAGAAACACACGUUGUGGUAUAUUACCUGGUA,0.101
19,GUCCUCUUUCGCGUGCGCGUGAAAGAGAGAACUGAACCAGAGAAACACACGUUGUGGUAUAUUACCUGGUA,0.0578
20,GUCCUCUUUCGCGUGCGCGUGAAAGAGAGAAGUCAACCAGAGAAACACACGUUGUGGUAUAUUACCUGGUA,1.3
21,GUCCUCUUUCGCGUGCGCGUGAAAGAGAGAAGUGAACCAAAGAAACACACGUUGUGGUAUAUUACCUGGUA,0.291
22,GUCCUCUUUCGCGUGCGCGUGAAAGAGAGAAGUGAACCACAGAAACACACGUUGUGGUAUAUUACCUGGUA,0.188
23,GUCCUCUUUCGCGUGCGCGUGAAAGAGAGAAGUGAACCAGAAAAACACACGUUGUGGUAUAUUACCUGGUA,0.201
24,GUCCUCUUUCGCGUGCGCGUGAAAGAGAGAAGUGAACCAGACAAACACACGUUGUGGUAUAUUACCUGGUA,0.322
